Reference: the supplement of paper PMC5998384

What was measured:
[1] = system: HeLa Kyoto; experiment: solubility change mitosis vs G1/S (difference of NP-40 vs SDS log2 ratios) (log2 ratio difference); higher = more soluble in mitosis
[2] = system: HeLa Kyoto; experiment: solubility in G1/S (NP-40 vs SDS abundance) (log2 ratio); higher = more soluble; settings: cell cycle stage: G1/S
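Throughout, for solubility change mitosis vs G1/S (difference of NP-40 vs SDS log2 ratios): synchronized HeLa Kyoto cells (double thymidine block for G1/S, nocodazole release for mitosis), protein amounts in NP-40 versus SDS lysates quantified by mass spectrometry, three biological replicates.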
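Throughout, for solubility in G1/S (NP-40 vs SDS abundance): HeLa Kyoto cells arrested at G1/S by double thymidine block, proteins quantified by TMT10plex mass spectrometry in mild NP-40 versus SDS extracts, three biological replicates.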

Row | Sequence | solubility change mitosis (log2) [1] | solubility in G1/S (log2) [2]
1 | MQARYSVSSPNSLGVVPYLGGEQSYYRAAAAAAGGGYTAMPAPMSVYSHPAHAEQYPGGMARAYGPYTPQPQPKDMVKPPYSYIALITMAIQNAPDKKITLNGIYQFIMDRFPFYRDNKQGWQNSIRHNLSLNECFVKVPRDDKKPGKGSYWTLDPDSYNMFENGSFLRRRRRFKKKDAVKDKEEKDRLHLKEPPPPGRQPPPAPPEQADGNAPGPQPPPVRIQDIKTENGTCPSPPQPLSPAAALGSGSAAAVPKIESPDSSSSSLSSGSSPPGSLPSARPLSLDGADSAPPPPAPSAPPPHHSQGFSVDNIMTSLRGSPQSAAAELSSGLLASAAASSRAGIAPPLALGAYSPGQSSLYSSPCSQTSSAGSSGGGGGGAGAAGGAGGAGTYHCNLQAMSLYAAGERGGHLQGAPGGAGGSAVDDPLPDYSLPPVTSSSSSSLSHGGGGGGGGGGQEAGHHPAAHQGRLTSWYLNQAGGDLGHLASAAAAAAAAGYPGQQQNFHSVREMFESQRIGLNNSPVNGNSSCQMAFPSSQSLYRTSGAFVYDCSKF [FOXC1] | -0.0439 | 0.0673
2 | MEGLGRSCLWLRRELSPPRPRLLLLDCRSRELYESARIGGALSVALPALLLRRLRRGSLSVRALLPGPPLQPPPPAPVLLYDQGGGRRRRGEAEAEAEEWEAESVLGTLLQKLREEGYLAYYLQGGFSRFQAECPHLCETSLAGRAGSSMAPVPGPVPVVGLGSLCLGSDCSDAESEADRDSMSCGLDSEGATPPPVGLRASFPVQILPNLYLGSARDSANLESLAKLGIRYILNVTPNLPNFFEKNGDFHYKQIPISDHWSQNLSRFFPEAIEFIDEALSQNCGVLVHCLAGVSRSVTVTVAYLMQKLHLSLNDAYDLVKRKKSNISPNFNFMGQLLDFERSLRLEERHSQEQGSGGQASAASNPPSFFTTPTSDGAFELAPT [DUSP9] | -0.104 | 0.279
3 | MAAGCCGVKKQKLSSSPPSGSGGGGGASSSSHCSGESQCRAGELGLGGAGTRLNGLGGLTGGGSGSGCTLSPPQGCGGGGGGIALSPPPSCGVGTLLSTPAAATSSSPSSSSAASSSSPGSRKMVVSAEMCCFCFDVLYCHLYGYQQPRTPRFTNEPYPLFVTWKIGRDKRLRGCIGTFSAMNLHSGLREYTLTSALKDSRFPPMTRDELPRLFCSVSLLTNFEDVCDYLDWEVGVHGIRIEFINEKGSKRTATYLPEVAKEQGWDHIQTIDSLLRKGGYKAPITNEFRKTIKLTRYRSEKMTLSYAEYLAHRQHHHFQNGIGHPLPPYNHYS [AMMECR1] | -0.37 | 0.255
4 | MFPVKVKVEKSELEMAKARNQLDAVLQCLLEKSHMDRERLDEEAGKTPSDTHNKDCSIAATGKRPSARFPHQRRKKRREMDDGLAEGGPQRSNTYVIKLFDRSVDLAQFSENTPLYPICRAWMRNSPSVRERECSPSSPLPPLPEDEEGSEVTNSKSRDVYKLPPPTPPGPPGDACRSRIPSPLQPEMQGTPDDEPSEPEPSPSTLIYRNMQRWKRIRQRWKEASHRNQLRYSESMKILREMYERQ [LIN37] | 0.0692 | 0.591
5 | MPDQALQQMLDRSCWVCFATDEDDRTAEWVRPCRCRGSTKWVHQACLQRWVDEKQRGNSTARVACPQCNAEYLIVFPKLGPVVYVLDLADRLISKACPFAAAGIMVGSIYWTAVTYGAVTVMQVVGHKEGLDVMERADPLFLLIGLPTIPVMLILGKMIRWEDYVLRLWRKYSNKLQILNSIFPGIGCPVPRIPAEANPLADHVSATRILCGALVFPTIATIVGKLMFSSVNSNLQRTILGGIAFVAIKGAFKVYFKQQQYLRQAHRKILNYPEQEEA [MARCH5] | 0.0312 | -0.272
6 | MLGQQQQQLYSSAALLTGERSRLLTCYVQDYLECVESLPHDMQRNVSVLRELDNKYQETLKEIDDVYEKYKKEDDLNQKKRLQQLLQRALINSQELGDEKIQIVTQMLELVENRARQMELHSQCFQDPAESERASDKAKMDSSQPERSSRRPRRQRTSESRDLCHMANGIEDCDDQPPKEKKSKSAKKKKRSKAKQEREASPVEFAIDPNEPTYCLCNQVSYGEMIGCDNEQCPIEWFHFSCVSLTYKPKGKWYCPKCRGDNEKTMDKSTEKTKKDRRSR [ING2] | 0.625 | -0.404
7 | MGASSSSALARLGLPARPWPRWLGVAALGLAAVALGTVAWRRAWPRRRRRLQQVGTVAKLWIYPVKSCKGVPVSEAECTAMGLRSGNLRDRFWLVIKEDGHMVTARQEPRLVLISIIYENNCLIFRAPDMDQLVLPSKQPSSNKLHNCRIFGLDIKGRDCGNEAAKWFTNFLKTEAYRLVQFETNMKGRTSRKLLPTLDQNFQVAYPDYCPLLIMTDASLVDLNTRMEKKMKMENFRPNIVVTGCDAFEEDTWDELLIGSVEVKKVMACPRCILTTVDPDTGVIDRKQPLDTLKSYRLCDPSERELYKLSPLFGIYYSVEKIGSLRVGDPVYRMV [MARC2] | 0.103 | -0.315
8 | MGTSLSPNDPWPLNPLSIQQTTLLLLLSVLATVHVGQRLLRQRRRQLRSAPPGPFAWPLIGNAAAVGQAAHLSFARLARRYGDVFQIRLGSCPIVVLNGERAIHQALVQQGSAFADRPAFASFRVVSGGRSMAFGHYSEHWKVQRRAAHSMMRNFFTRQPRSRQVLEGHVLSEARELVALLVRGSADGAFLDPRPLTVVAVANVMSAVCFGCRYSHDDPEFRELLSHNEEFGRTVGAGSLVDVMPWLQYFPNPVRTVFREFEQLNRNFSNFILDKFLRHCESLRPGAAPRDMMDAFILSAEKKAAGDSHGGGARLDLENVPATITDIFGASQDTLSTALQWLLLLFTRYPDVQTRVQAELDQVVGRDRLPCMGDQPNLPYVLAFLYEAMRFSSFVPVTIPHATTANTSVLGYHIPKDTVVFVNQWSVNHDPLKWPNPENFDPARFLDKDGLINKDLTSRVMIFSVGKRRCIGEELSKMQLFLFISILAHQCDFRANPNEPAKMNFSYGLTIKPKSFKVNVTLRESMELLDSAVQNLQAKETCQ [CYP1B1] | -0.171 | -0.0639
9 | MEFSIKQSPLSVQSVVKCIKMKQAPEILGSANGKTPSCEVNRECSVFLSKAQLSSSLQEGVMQKFNGHDALPFIPADKLKDLTSRVFNGEPGAHDAKLRFESQEMKGIGTPPNTTPIKNGSPEIKLKITKTYMNGKPLFESSICGDSAADVSQSEENGQKPENKARRNRKRSIKYDSLLEQGLVEAALVSKISSPSDKKIPAKKESCPNTGRDKDHLLKYNVGDLVWSKVSGYPWWPCMVSADPLLHSYTKLKGQKKSARQYHVQFFGDAPERAWIFEKSLVAFEGEGQFEKLCQESAKQAPTKAEKIKLLKPISGKLRAQWEMGIVQAEEAASMSVEERKAKFTFLYVGDQLHLNPQVAKEAGIAAESLGEMAESSGVSEEAAENPKSVREECIPMKRRRRAKLCSSAETLESHPDIGKSTPQKTAEADPRRGVGSPPGRKKTTVSMPRSRKGDAASQFLVFCQKHRDEVVAEHPDASGEEIEELLRSQWSLLSEKQRARYNTKFALVAPVQAEEDSGNVNGKKRNHTKRIQDPTEDAEAEDTPRKRLRTDKHSLRKRDTITDKTARTSSYKAMEAASSLKSQAATKNLSDACKPLKKRNRASTAASSALGFSKSSSPSASLTENEVSDSPGDEPSESPYESADETQTEVSVSSKKSERGVTAKKEYVCQLCEKPGSLLLCEGPCCGAFHLACLGLSRRPEGRFTCSECASGIHSCFVCKESKTDVKRCVVTQCGKFYHEACVKKYPLTVFESRGFRCPLHSCVSCHASNPSNPRPSKGKMMRCVRCPVAYHSGDACLAAGCSVIASNSIICTAHFTARKGKRHHAHVNVSWCFVCSKGGSLLCCESCPAAFHPDCLNIEMPDGSWFCNDCRAGKKLHFQDIIWVKLGNYRWWPAEVCHPKNVPPNIQKMKHEIGEFPVFFFGSKDYYWTHQARVFPYMEGDRGSRYQGVRGIGRVFKNALQEAEARFREIKLQREARETQESERKPPPYKHIKVNKPYGKVQIYTADISEIPKCNCKPTDENPCGFDSECLNRMLMFECHPQVCPAGEFCQNQCFTKRQYPETKIIKTDGKGWGLVAKRDIRKGEFVNEYVGELIDEEECMARIKHAHENDITHFYMLTIDKDRIIDAGPKGNYSRFMNHSCQPNCETLKWTVNGDTRVGLFAVCDIPAGTELTFNYNLDCLGNEKTVCRCGASNCSGFLGDRPKTSTTLSSEEKGKKTKKKTRRRRAKGEGKRQSEDECFRCGDGGQLVLCDRKFCTKAYHLSCLGLGKRPFGKWECPWHHCDVCGKPSTSFCHLCPNSFCKEHQDGTAFSCTPDGRSYCCEHDLGAASVRSTKTEKPPPEPGKPKGKRRRRRGWRRVTEGK [WHSC1] | 0.535 | -1.29
10 | MPGEEEERAFLVAREELASALRRDSGQAFSLEQLRPLLASSLPLAARYLQLDAARLVRCNAHGEPRNYLNTLSTALNILEKYGRNLLSPQRPRYWRGVKFNNPVFRSTVDAVQGGRDVLRLYGYTEEQPDGLSFPEGQEEPDEHQVATVTLEVLLLRTELSLLLQNTHPRQQALEQLLEDKVEDDMLQLSEFDPLLREIAPGPLTTPSVPGSTPGPCFLCGSAPGTLHCPSCKQALCPACDHLFHGHPSRAHHLRQTLPGVLQGTHLSPSLPASAQPRPQSTSLLALGDSSLSSPNPASAHLPWHCAACAMLNEPWAVLCVACDRPRGCKGLGLGTEGPQGTGGLEPDLARGRWACQSCTFENEAAAVLCSICERPRLAQPPSLVVDSRDAGICLQPLQQGDALLASAQSQVWYCIHCTFCNSSPGWVCVMCNRTSSPIPAQHAPRPYASSLEKGPPKPGPPRRLSAPLPSSCGDPEKQRQDKMREEGLQLVSMIREGEAAGACPEEIFSALQYSGTEVPLQWLRSELPYVLEMVAELAGQQDPGLGAFSCQEARRAWLDRHGNLDEAVEECVRTRRRKVQELQSLGFGPEEGSLQALFQHGGDVSRALTELQRQRLEPFRQRLWDSGPEPTPSWDGPDKQSLVRRLLAVYALPSWGRAELALSLLQETPRNYELGDVVEAVRHSQDRAFLRRLLAQECAVCGWALPHNRMQALTSCECTICPDCFRQHFTIALKEKHITDMVCPACGRPDLTDDTQLLSYFSTLDIQLRESLEPDAYALFHKKLTEGVLMRDPKFLWCAQCSFGFIYEREQLEATCPQCHQTFCVRCKRQWEEQHRGRSCEDFQNWKRMNDPEYQAQGLAMYLQENGIDCPKCKFSYALARGGCMHFHCTQCRHQFCSGCYNAFYAKNKCPEPNCRVKKSLHGHHPRDCLFYLRDWTALRLQKLLQDNNVMFNTEPPAGARAVPGGGCRVIEQKEVPNGLRDEACGKETPAGYAGLCQAHYKEYLVSLINAHSLDPATLYEVEELETATERYLHVRPQPLAGEDPPAYQARLLQKLTEEVPLGQSIPRRRK [RNF31] | -0.0502 | -0.0767
11 | MAEGDAGSDQRQNEEIEAMAAIYGEEWCVIDDCAKIFCIRISDDIDDPKWTLCLQVMLPNEYPGTAPPIYQLNAPWLKGQERADLSNSLEEIYIQNIGESILYLWVEKIRDVLIQKSQMTEPGPDVKKKTEEEDVECEDDLILACQPESSLKALDFDISETRTEVEVEELPPIDHGIPITDRRSTFQAHLAPVVCPKQVKMVLSKLYENKKIASATHNIYAYRIYCEDKQTFLQDCEDDGETAAGGRLLHLMEILNVKNVMVVVSRWYGGILLGPDRFKHINNCARNILVEKNYTNSPEESSKALGKNKKVRKDKKRNEH [IMPACT] | 0.00643 | 0.0693
